Test results from patent US8470576B2, “Group of novel enantioselective microbial nitrile hydratases with broad substrate specificity” (B.R.A.I.N. AG, priority 2006, dated 2013).
Numbering of substitutions follows the chain as printed.

B1: NHase Seq ID No. 2 and 4: nitrile hydratase of Raoultella terrigena strain 77.1, α-subunit SEQ ID NO 2, β-subunit SEQ ID NO 4 (protein)
alpha: MSHKHDHDHTEPPVDIELRVRALESLLQEKGLIDPAALDELIDTYEHKVGPRNGAQVVARAWSDPEYKRRLMENATAAISELGFSGIQGEDMLVVENTPDVHNVTVCTLCSCYPWPVLGLPPVWYKSAPYRSRIVIDPRGVLAEFGLHIPESKEIRVWDSSAELRYLVLPERPAGTDGWSEAQLSELISRDSMIGTGVVTAP
beta: MNGIHDLGGMHGFGPIPTEENEPYFHHEWERRVFPMFASLFVGVHFNVDEFRHSIECMPPADYLQSSYYEHWLHAFETLLLAKGVITVDELWGGAKPTLCKPGTPVLTQDMVSMVVSTGGSARVSHDVAPRFRVGDRVRTKNFNPTTHTRLPRYARDKVGRIEIAHGVFITPDTAAHGLGEHPQHVYSVSFTAQELWGEPRPDNVFIDLWDDYLEEA
modifications: Raoultella terrigena, strain 77.1
B2: NHase Seq ID No. 18 and 20: nitrile hydratase of Klebsiella oxytoca strain 38.1.2, α-subunit SEQ ID NO 18, β-subunit SEQ ID NO 20 (protein)
alpha: B1 alpha with E11Q, S80A, S152N, D177E, S189T
beta: MNGIHDLGGMHGLGPIPTEENEPYFHHEWERRVFPLFASLFVGGHFNVDEFRHAIERMAPTEYLQSSYYEHWLHAFETLLLAKGVITVEELWGGAKPAPCKPGTPVLTQEMVSMVVSTGGSARVSHDVAPRFRVGDWVRTKNFNPTTHTRLPRYARDKVGRIEIAHGVFITPDTAAHGLGEHPQHVYSVSFTAQALWGEPRPDKVFIDLWDDYLEEA
modifications: Klebsiella oxytoca, strain 38.1.2

Assays:
Type in all cases: biochemical
[1] = Activity of enzyme samples after heterologous expression of NHases in E. coli towards PPN; details: 1 mM PPN; stopped after 1 min; host E. coli BL21 (DE3) (a) or E. coli Rosetta (DE3) (b)
Description: The amplified α-subunits were ligated to pET22b whereas the β-subunits were ligated to pET26b by use of the unique NdeI and XhoI restriction enzyme recognition sites. E. coli BL21 (DE3) or E. coli Rosetta (DE3) was cotransformed with the vectors carrying the genes for the corresponding α- and β-subunits of the NHases. Freshly transformed cells were grown over night at 37° C. in 5 ml LB-medium containing 100 μg/ml ampicillin, 25 μg/ml kanamycin and 2% (w/v) glucose. In case of E. coli Rosetta (DE3) 12.5 μg/ml chloramphenicol was additionally used. 1 ml of this culture was used to inoculate 100 ml of LB-medium containing 100 μg/ml ampicillin, 25 μg/ml kanamycin and 1% (w/v) glucose. Cells were incubated at 20° C. or 30° C. on a gyratory shaker at 100 rpm. At an optical density O.D.595=1 cells were induced by addition of 100 μg/ml IPTG. Simultaneously, CoCl2*6H2O was added in a concentration of 250 μM. When the P16K activator protein from the strain Brevibacterium linens was coexpressed with the corresponding NHase E. coli Rosetta (DE3) pET22—32B1α pET26—32B.1β pBBR5—32B_P16K was grown in LB-medium containing 100 μg/ml ampicillin, 25 μg/ml kanamycin, 12.5 μg/ml chloramphenicol and 10 μg/ml gentamycin and 1% (w/v) glucose. Samples were taken 24 h after induction.
If not otherwise indicated enzyme samples were prepared as follows: the cells from 1 ml of the culture were washed with 50 mM Tris/HCl pH 7.5 and resuspended in 750 μl of the same buffer. This suspension was incubated at 30° C. in a thermomixer at 1000 rpm. The biotransformation was started by addition of the substrate 2-phenylpropionitrile (PPN) in 50 mM Tris/HCl pH 7.5. The concentration of the substrate was 1 mM, if not otherwise stated. The reaction was stopped after 1 min, 5 min or 10 min as indicated by addition of 1 M HCl. Cells were removed by centrifugation and the supernatant analysed by HPLC for the presence of the corresponding amide. The HPLC analysis was carried out on a system comprising a Surveyor 4 channel Pump, AutoSampler and UVNIS detector at 210 nm from Thermo Finnigan on a Grom-Sil 1200DS-3 cp 3 μm (125×4.6 mm) reverse phase column. As mobile phase, acetonitrile and 0.3% H3PO4 were used in a ratio of 50:50 at a flow of 0.7 ml/min, respectively.

[2] = Enantioselectivity of NHases towards rac-mandelonitrile (washed cells, chiral HPLC); details: for enantiopreference: (R/S)-mandelonitrile; for Eapp-value: kinetic resolution of (R/S)-mandelonitrile; for Eapp-value heterologously expressed / Eapp-value homologously expressed: rac-mandelonitrile; for Eapp-value heterologously expressed: heterologously expressed NHase; for Eapp-value homologously expressed: homologously expressed NHase
Description: For the determination of enantioselectivity towards rac-mandelonitrile and 2-phenylpropionitrile 40-50 mg of washed cells were resuspended in 1 ml of 50 mM Tris/HCl pH 7.5. 100 μl of cell suspension were mixed with 800 μl 50 mM Tris/HCl pH 7.5 and incubated at 30° C. in a thermomixer at 1000 rpm. The biotransformation was started by addition of 100 μl of 10 mM rac-mandelonitrile or rac-2-phenylpropionitrile in 50 mM Tris/HCl pH 7.5. The reaction was stopped by addition of 100 μl 1M HCl after 1, 5 or 10 min. Cells were removed by centrifugation and the supernatant analysed by chiral HPLC for the presence of mandeloamide and phenylpropionamide, respectively. rac-Mandeloamide was analysed on a HPLC comprising a Surveyor 4 channel Pump, AutoSampler and UVNIS detector at 210 nm from Thermo Finnigan on a Nucleodex β-OH column (Macherey & Nagel) using 50% methanol/water:water (40:60) as mobile phase at a flow rate of 0.7 ml/min. The apparent enantiomeric ratio (Eapp) of the conversion of mandelonitrile was calculated according to Straathof and Jongejan for […] (see example 9). In case of 2-phenylpropionamide, the samples were lyophilized and resuspended in n-hexane: 2-propanol (80:20). Prior to injection, the samples were additionally dried with sodium sulfate and were centrifugated at 16,000 g for 5 min. The supernatants were analyzed using a Chiracel OD column (Daicel) on a Spectra System (AS3000, P2000, UV2000 at 210 nm) from Thermo Separation Products with n-hexane: 2-propanol (80:20) as mobile phase at a flow rate of 0.5 ml/min. The enantiomeric ratio (E) of the conversion of PPN was calculated according to Chen et al. […]

[3] = Enantioselectivity of NHases towards rac-2-phenylpropionitrile (washed cells, chiral HPLC); details: for E-value: kinetic resolution of rac-2-phenylpropionitrile; for enantiopreference: rac-2-phenylpropionitrile
Description: For the determination of enantioselectivity towards rac-mandelonitrile and 2-phenylpropionitrile 40-50 mg of washed cells were resuspended in 1 ml of 50 mM Tris/HCl pH 7.5. 100 μl of cell suspension were mixed with 800 μl 50 mM Tris/HCl pH 7.5 and incubated at 30° C. in a thermomixer at 1000 rpm. The biotransformation was started by addition of 100 μl of 10 mM rac-mandelonitrile or rac-2-phenylpropionitrile in 50 mM Tris/HCl pH 7.5. The reaction was stopped by addition of 100 μl 1M HCl after 1, 5 or 10 min. Cells were removed by centrifugation and the supernatant analysed by chiral HPLC for the presence of mandeloamide and phenylpropionamide, respectively. rac-Mandeloamide was analysed on a HPLC comprising a Surveyor 4 channel Pump, AutoSampler and UVNIS detector at 210 nm from Thermo Finnigan on a Nucleodex β-OH column (Macherey & Nagel) using 50% methanol/water:water (40:60) as mobile phase at a flow rate of 0.7 ml/min. The apparent enantiomeric ratio (Eapp) of the conversion of mandelonitrile was calculated according to Straathof and Jongejan for asymmetric catalysis (see example 9). In case of 2-phenylpropionamide, the samples were lyophilized and resuspended in n-hexane: 2-propanol (80:20). Prior to injection, the samples were additionally dried with sodium sulfate and were centrifugated at 16,000 g for 5 min. The supernatants were analyzed using a Chiracel OD column (Daicel) on a Spectra System (AS3000, P2000, UV2000 at 210 nm) from Thermo Separation Products with n-hexane: 2-propanol (80:20) as mobile phase at a flow rate of 0.5 ml/min. The enantiomeric ratio (E) of the conversion of PPN was calculated according to Chen et al.

Row | Molecule | vol. activity [1] | enantiopreference [2] | Eapp-value [2] | Eapp-value heterologously expressed [2] | Eapp-value homologously expressed [2] | E-value [3] | enantiopreference [3] | spec. activity [1]
1 | B1 | 4.9 μkat/L cultur | (S) | 20 | 20 | 19 | 47 | (S) | 
2 | B2 | 8.6 μkat/L cultur | (S) | 19 | 19 | 17 | 35 | (S) | 9.6 μkat/g cdw
